Reference: paper PMC3280250, “Functional Redundancy of Two Pax-Like Proteins in Transcriptional Activation of Cyst Wall Protein Genes in Giardia lamblia”
Residue numbers refer to the chain shown, from its start.

T1: Pax2 (Giardia lamblia, UniProt A8B733 1-302)
T1 sequence: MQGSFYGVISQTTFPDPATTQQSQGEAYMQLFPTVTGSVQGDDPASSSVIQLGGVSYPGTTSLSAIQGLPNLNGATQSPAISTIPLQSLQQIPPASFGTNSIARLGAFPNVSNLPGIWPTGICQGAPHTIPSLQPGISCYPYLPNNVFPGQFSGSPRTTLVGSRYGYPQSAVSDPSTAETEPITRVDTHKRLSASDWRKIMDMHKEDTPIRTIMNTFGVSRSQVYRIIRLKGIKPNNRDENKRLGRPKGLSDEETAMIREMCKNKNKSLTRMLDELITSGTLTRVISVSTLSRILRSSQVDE

T2: Pax2m3 (Giardia lamblia, UniProt A8B733 1-171, del172-302)
T2 sequence: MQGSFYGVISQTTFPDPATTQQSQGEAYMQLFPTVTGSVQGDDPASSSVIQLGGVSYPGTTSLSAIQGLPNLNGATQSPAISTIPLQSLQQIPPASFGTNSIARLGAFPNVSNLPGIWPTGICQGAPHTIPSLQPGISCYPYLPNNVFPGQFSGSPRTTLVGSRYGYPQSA

B1: cwp1-45/-1m4 (dsDNA)
DNA 1: GTTTACAACTCTCAGATCGGCGGGCACAGAAATAAAATATCAGGG
DNA 2: CCCTGATATTTTATTTCTGTGCCCGCCGATCTGAGAGTTGTAAAC
B2: cwp1-45/-1m11 (dsDNA)
DNA 1: GTTTACAACTCTCAGATCAAGAAACACAGAAAAAAAAAAACAGGG
DNA 2: CCCTGTTTTTTTTTTTCTGTGTTTCTTGATCTGAGAGTTGTAAAC
B3: cwp1-45/-1m5 (dsDNA)
DNA 1: GTTTACAACTCTCAGATCAAGAAAGGGAGAAATAAAATATCAGGG
DNA 2: CCCTGATATTTTATTTCTCCCTTTCTTGATCTGAGAGTTGTAAAC
B4: cwp1-45/-1m9 (dsDNA)
DNA 1: B2 DNA 1 with A33T, A38T, A40C, C41G, A42G
DNA 2: B2 DNA 2 with T4C, G5C, T6G, T8A, T13A
B5: cwp3-30/+10 (dsDNA)
DNA 1: GTCTTTCCCAAAAAATAAGTTACTACTGATATGTTTTCTC
DNA 2: GAGAAAACATATCAGTAGTAACTTATTTTTTGGGAAAGAC
B6: ran-30/-1 (dsDNA)
DNA 1: TAAAACTTTAACCCAGGAACCGAGAGTAGC
DNA 2: GCTACTCTCGGTTCCTGGGTTAAAGTTTTA
B7: cwp2-60/-31 (dsDNA)
DNA 1: TAGACTGATGCTGTAGAGGTCAACAGATAA
DNA 2: TTATCTGTTGACCTCTACAGCATCAGTCTA
B8: poly(A) with T insertion (dsDNA)
DNA 1: AAAAAAAAAAATAAAAAAAAAAA
DNA 2: TTTTTTTTTTTATTTTTTTTTTT
B9: cwp1-90/-69 (dsDNA)
DNA 1: CTGGCTAACAGTCTACAGTCTA
DNA 2: TAGACTGTAGACTGTTAGCCAG
B10: myb2-60/-31 (dsDNA)
DNA 1: TGGCTATGTATTTTTTCTTCTTCTACAGCT
DNA 2: AGCTGTAGAAGAAGAAAAAATACATAGCCA
B11: cwp1-90/-46 (dsDNA)
DNA 1: CTGGCTAACAGTCTACAGTCTACAATTTACAGTATACAATCTACA
DNA 2: TGTAGATTGTATACTGTAAATTGTAGACTGTAGACTGTTAGCCAG
B12: poly(A) with TC insertion (dsDNA)
DNA 1: AAAAAAAAAAATCAAAAAAAAAA
DNA 2: TTTTTTTTTTGATTTTTTTTTTT
B13: poly(A) with TTT insertion (dsDNA)
DNA 1: AAAAAAAAAATTTAAAAAAAAAA
DNA 2: TTTTTTTTTTAAATTTTTTTTTT
B14: ran-51/-20 (dsDNA)
DNA 1: TAAAATAAATTAAATCGAAATTAAAACTTTAA
DNA 2: TTAAAGTTTTAATTTCGATTTAATTTATTTTA
B15: poly(A) with TT insertion (dsDNA)
DNA 1: AAAAAAAAAAATTAAAAAAAAAA
DNA 2: TTTTTTTTTTAATTTTTTTTTTT
B16: poly(A) (dsDNA)
DNA 1: AAAAAAAAAAAAAAAAAAAAAAA
DNA 2: TTTTTTTTTTTTTTTTTTTTTTT
B17: ran-81/-52 (dsDNA)
DNA 1: CAGAAAAAGTTGTCAAGGAGGTGATAGCCG
DNA 2: CGGCTATCACCTCCTTGACAACTTTTTCTG
B18: cwp2-30/+8 (dsDNA)
DNA 1: CAGCAGCTCAACAGTGGCTGGGAAAATAAAATGATCGC
DNA 2: GCGATCATTTTATTTTCCCAGCCACTGTTGAGCTGCTG
B19: cwp1-45/-1 (dsDNA)
DNA 1: B2 DNA 1 with A33T, A38T, A40T
DNA 2: B3 DNA 2 with C19G, C20T, C21G

Target: T1, Pax2
Assay: EMSA; unchanged; EMSA: 0.02 pmol 5'-32P probe, 5 ng protein, 20 ul, 0.5 ug poly(dI-dC), 15 min at room temperature, 6% acrylamide gel; buffer, salt and pH only by reference [31]
Details: protein: recombinant; tags: C-terminal V5-His (pET101/D-TOPO); label: 5'-32P

Binder | binding result
B1 | binds
B2 | binds
B3 | binds
B4 | binds

Target: T1, Pax2
Assay: EMSA; strong binding; EMSA: 0.02 pmol 5'-32P probe, 5 ng protein, 20 ul, 0.5 ug poly(dI-dC), 15 min at room temperature, 6% acrylamide gel; buffer, salt and pH only by reference [31]
Details: protein: recombinant; tags: C-terminal V5-His (pET101/D-TOPO); label: 5'-32P

Binder | binding result
B5 | binds

Target: T1, Pax2
Assay: EMSA; EMSA: 0.02 pmol 5'-32P probe, 5 ng protein, 20 ul, 0.5 ug poly(dI-dC), 15 min at room temperature, 6% acrylamide gel; buffer, salt and pH only by reference [31]
Details: protein: recombinant; tags: C-terminal V5-His (pET101/D-TOPO)

Binder | binding result
B6 | no binding
GTTTACAACTCTCAGATCAAGAAACACAGAAATAAAATATCAGGG (ssDNA) [cwp1-45/-1 single strand 1] | no binding

Same assay, conditions: protein: recombinant; tags: C-terminal V5-His (pET101/D-TOPO); label: 5'-32P

Binder | binding result
B7 | no binding
B8 | binds
B9 | no binding
B10 | no binding
B11 | binds
B12 | binds
B13 | binds
B14 | binds
B15 | binds
B16 | binds
B17 | no binding

Target: T2, Pax2m3
Assay: as above
Details: protein: recombinant; tags: C-terminal V5-His (pET101/D-TOPO); label: 5'-32P

Binder | binding result
B18 | no binding
B5 | no binding
B14 | no binding
B19 | no binding

Target: T1, Pax2
Assay: EMSA; self-competition and anti-V5 supershift assay confirm specificity; EMSA: 0.02 pmol 5'-32P probe, 5 ng protein, 20 ul, 0.5 ug poly(dI-dC), 15 min at room temperature, 6% acrylamide gel; buffer, salt and pH only by reference [31]
Details: protein: recombinant; tags: C-terminal V5-His (pET101/D-TOPO); label: 5'-32P

Binder | binding result
B19 | binds
